Data as given in patent US20150093388A1 (IMMUNOGEN, published 2015).

Experiments:
[1] = target: T1, recombinant human FOLR1-murine IgG2a Fc protein (human; murine, UniProt P15328 25-234, limits assumed); test: ELISA, recombinant human FOLR1-murine Fc2a immobilized on the plate, hrp goat anti-murine secondary
T1 construct: also called humanFOLR1-murine Fc2a; FOLR1-Fc; not shown: murine IgG2a Fc
Method: The binding affinity of the anti-FOLR1 antibodies was examined by ELISA where recombinant humanFOLR1-murine Fc2a protein was used as the antigen. The recombinant protein was immobilized on microtiter plates, and the antibodies were added at a range of concentrations to the plates. The plates were incubated for two hours at room temperature, washed with PBS supplemented with 0.05% Tween-20, and incubated with hrp-labeled goat anti-murine secondary antibody for one hour at room temperature. The plates were washed with PBS/Tween-20 again, and bound hrp-conjugated antibody was detected by adding the hrp-substrate TMB (Bio-FX).

[2] = target: T2, recombinant FOLR3-His (R&D Systems) (UniProt P41439 23-245, limits assumed); test: ELISA, FOLR3-His immobilized on Ni-NTA plate
T2 construct: not shown: His tag
Method: (§1) FOLR1 is a member of Folate Receptor family. Cross-reactivity of the anti-FOLR1 antibodies with the other members of the family FOLR2 and FOLR3 was assayed by ELISA. Recombinant protein FOLR2-His or FOLR3-His (R&D Systems) was immobilized to Ni-NTA plates (QIAGEN) and the anti-FOLR1 antibodies were added to the plates and incubated for 2 hours at room temperature. As positive controls for FOLR2 and FOLR3 ELISA polyclonal anti-FOLR2 and FOLR3 antibodies (R&D systems), respectively, were used. The formed antibody-antigen complexes were detected with hip-labeled goat anti-murine secondary antibody.

[3] = target: T3, recombinant FOLR2-His (R&D Systems) (UniProt P14207 17-228, limits assumed); test: ELISA, FOLR2-His immobilized on Ni-NTA plate
T3 construct: not shown: His tag
Method: as §1

[4] = target: T4, human folate receptor 1 (FOLR1) on cells, in cell lysates and in FFPE tissues (human, UniProt P15328 25-234, N-glycosylated at positions 69, 161 and 201); test: Western blot of cell lysates
T4 construct: also called folate receptor alpha; FR-alpha
Method: (§2) Human FOLR1 has three potential sites for N-glycosylation at positions 69, 161 and 201 (UniProt), and, as reported in literature, all three sites are glycosylated. To characterize the nature of the epitopes recognized by the anti-FOLR1 antibodies described herein, binding experiments were performed with deglycosylated and non-treated receptor. Of the generated anti-FOLR1 clones, only clone 2.1 was used in the study because, based on the sequencing data, the clones are related and likely to bind to the same epitope. In addition to clone 2.1, two other anti-FOLR1 antibodies were included: huMov19 (WO 2011/106528) and clone BN3.2 (Leica). In order to deglycosylate FOLR1, recombinant human FOLR1 or lysates of FOLR1-positive KB or Igrov-1 cells were treated with a mixture of deglycosylation enzymes (Enzymatic DeGlycoMX Kit, QA-bio) according to the Manufacturer's protocol. Then, samples of treated and non-treated FOLR1 were used in ELISA and Western blot analysis. […] After 2 h incubation, antibody-antigen complexes were detected with hip-labeled goat anti-human (for huMov19) or anti-murine (for 2.1) secondary antibody (FIG. 7). […] The membrane was incubated with the anti-FOLR1 antibodies 2.1, huMov19, or BN3.2, and the antigen-antibody complexes were detected with the appropriate secondary anti-murine or anti human antibodies conjugated with horse-radish peroxidase (FIG. 8).

[5] = target: T5, deglycosylated recombinant human FOLR1 (human, UniProt P15328 25-233, limits assumed, glycans removed with a mixture of deglycosylation enzymes (Enzymatic DeGlycoMX Kit)); test: ELISA, deglycosylated FOLR1 immobilized on the plate, hrp goat anti-human secondary
T5 construct: also called deglycosylated FOLR1
Method: as §2

[6] = target: T6, deglycosylated human FOLR1 in lysates of KB and Igrov-1 cells (human, UniProt P15328 25-234, glycans removed with a mixture of deglycosylation enzymes (Enzymatic DeGlycoMX Kit)); test: Western blot of enzymatically deglycosylated cell lysates
T6 construct: Endogenous FOLR1 of cell lysates after enzymatic deglycosylation; also called deglycosylated lysates
Method: as §2

[7] = target: T7, recombinant human FOLR1 (non-treated) (human, UniProt P15328 25-233, limits assumed, N-glycosylated (non-treated)); test: ELISA, FOLR1 immobilized on the plate, hrp goat anti-human secondary
T7 construct: also called huFOLR1 recombinant protein; non-treated FOLR1
Method: as §2

T3 sequence (P14207 17-228 limits assumed): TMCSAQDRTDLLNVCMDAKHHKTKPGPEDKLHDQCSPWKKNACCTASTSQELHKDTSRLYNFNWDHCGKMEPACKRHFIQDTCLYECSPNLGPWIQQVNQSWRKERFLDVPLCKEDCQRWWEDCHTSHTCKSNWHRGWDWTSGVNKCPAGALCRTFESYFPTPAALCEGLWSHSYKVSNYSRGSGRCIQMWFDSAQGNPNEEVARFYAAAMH
T2 sequence (P41439 23-245 limits assumed): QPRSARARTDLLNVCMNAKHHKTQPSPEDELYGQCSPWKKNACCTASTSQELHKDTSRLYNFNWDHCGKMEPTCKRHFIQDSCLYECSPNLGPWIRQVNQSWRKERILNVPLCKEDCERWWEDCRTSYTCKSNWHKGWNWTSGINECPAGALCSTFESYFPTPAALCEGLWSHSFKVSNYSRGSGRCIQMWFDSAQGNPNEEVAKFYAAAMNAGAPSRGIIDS
T1 sequence (P15328 25-234 limits assumed): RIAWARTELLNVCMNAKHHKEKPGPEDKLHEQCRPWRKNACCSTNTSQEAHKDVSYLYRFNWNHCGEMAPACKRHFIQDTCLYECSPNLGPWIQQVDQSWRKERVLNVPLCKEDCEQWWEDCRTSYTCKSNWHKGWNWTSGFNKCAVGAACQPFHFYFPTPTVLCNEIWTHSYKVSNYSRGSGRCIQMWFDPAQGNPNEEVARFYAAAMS
T4 sequence (P15328 25-234): as the sequence (P15328 25-234 limits assumed) above
T6 sequence (P15328 25-234): as the sequence (P15328 25-234 limits assumed) above
T7 sequence (P15328 25-233 limits assumed): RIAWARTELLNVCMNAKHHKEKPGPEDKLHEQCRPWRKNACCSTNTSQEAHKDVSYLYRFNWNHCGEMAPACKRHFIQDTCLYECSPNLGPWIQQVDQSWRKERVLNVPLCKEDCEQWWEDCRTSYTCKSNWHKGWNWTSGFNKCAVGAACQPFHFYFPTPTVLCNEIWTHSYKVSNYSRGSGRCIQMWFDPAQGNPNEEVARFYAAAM
T5 sequence (P15328 25-233 limits assumed): as above

Row | Binder | EC50 [1] | binding result [2] | binding result [3] | binding result [4] | binding result [5] | binding result [6] | binding result [7]
1 | muFRIHC2-1 (anti-FOLR1 antibody 353.2-1, ATCC PTA-120197) (antibody, mouse IgG1, kappa, V domains shown, also called FOLR1-2.1) VH: QVQLQQSGPELVKPGASVRISCKASGYTFTNSYIHWVKKRPGQGLEWIGWIYPESLNTQYNEKFKAKATLTADKSSSTSYMQLSSLTSEDSAVYFCARRGIYYYSPYALDHWGQGASVTVSS VL: DVVLTQTPLSLPVNIGDQASISCKSSKSLLNSDGFTYLDWYLQKPGQSPQLLIYLVSNHFSGVPDRFSGSGSGTDFTLKISRVEAEDLGVYYCFQSNYLPLTFGGGTKLEIKR | 0.5 nM | no binding (tested: about 3x10^-8 M) | no binding (tested: 10^-8 M) | – | – | – | –
2 | huMov19 (antibody, human IgG1, kappa, V domains shown, the full chains labelled huMov19 HC (55) and huMov19 LCv1.60 (57) are used; also called M9346A; antibody of IMGN853) VH: QVQLVQSGAEVVKPGASVKISCKASGYTFTGYFMNWVKQSPGQSLEWIGRIHPYDGDTFYNQKFQGKATLTVDKSSNTAHMELLSLTSEDFAVYYCTRYDGSRAMDYWGQGTTVTVSS VL: DIVLTQSPLSLAVSLGQPAIISCKASQSVSFAGTSLMHWYHQKPGQQPRLLIYRASNLEAGVPDRFSGSGSKTDFTLTISPVEAEDAATYYCQQSREYPYTFGGGTKLEIKR | – | – | – | binds | binds | binds | binds
3 | muFRIHC5-7 (anti-FOLR1 antibody 353.5-7) (antibody, mouse IgG1, kappa, V domains shown, Murine monoclonal; also called clone 5.7) VH: QVQLQQSGPEVVKPGASVRISCKASGYTFTNYYIHWVKQRPGQGLEWIGWIYPGSFNVEYNEKFKAKATLTADKSSSTVYMQLSSLTSEDSAVYFCARRGIYFYSPYALDYWGQGASVTVSS VL: DVVLTQTPLSLPVNIGDQASISCKSTESLLNSDGFTYLDWYLQKPGQSPQLLIYLVSNHFSGVPDRFSGSGSGTDFTLKISRVEAEDLGVYYCFQSNYLPLTFGGGTKLEVKR | – | no binding (tested: about 3x10^-8 M) | no binding (tested: 10^-8 M) | – | – | – | –
4 | anti-FOLR1 antibody 353.9-21 (antibody, mouse IgG1, kappa, V domains shown, Sister subclone of 9.20; also called clone 9.21) VH: QVQLQQSGPDLVKPGASVRISCKASGFTFTNYYIHWVKQRPGQGLEWIGWIYPENVNVRYNDKFKAKATLTADKSSSTAYMQLSSLTSEDSAVYFCARRGIYYYSPYAMDYWGQGASVTVSS VL: DVVLTQTPLSLPVNLGDQASISCKSTKSLLNSDGFTYLDWYLQKPGQSPQLLIYLVSNHFSGVPDRFSGSGSGTDFTLKISRVEAEDLGVYYCFQSNYLPLTFGGGTKLEIKR | – | no binding (tested: about 3x10^-8 M) | no binding (tested: 10^-8 M) | – | – | – | –
